Assay [1] has as its target T1, GST-PhoP (M. tuberculosis, UniProt P71814 1-247).
T1 construct: PhoP, response regulator, M. tuberculosis; also called GST-tagged PhoP
As to the kind of experiment: pull-down. As to conditions: both partners purified.

Assay [2] concerns the target T2, His6-PhoP (M. tuberculosis, UniProt P71814 1-247).
T2 construct: PhoP, response regulator, M. tuberculosis, full length (247 amino acids); also called His-PhoP; not shown: His6, N-terminal, kept
The assay is described as follows: pull-down. As to conditions: both partners purified.

The values that follow come from PMC10723718 (PLOS Genetics, 2023).

B1: His6-tagged PrrBC (cytoplasmic region of PrrB comprising C-terminal residues 200 to 446) (domain or fragment)
chain: ASEAIEIAEAMRGMLQRIWNEQNRTKEALASARDFAAVSSHELRTPLTAMRTNLEVLSTLDLPDDQRKEVLNDVIRTQSRIEATLSALERLAQGELSTSDDHVPVDITDLLDRAAHDAARIYPDLDVSLVPSPTCIIVGLPAGLRLAVDNAIANAVKHGGATLVQLSAVSSRAGVEIAIDDNGSGVPEGERQVVFERFSRGSTASHSGSGLGLALVAQQAQLHGGTASLENSPLGGARLVLRLPGPS
notes: PrrB, sensor kinase, M. tuberculosis, cytoplasmic domain residues 200-446 (247 amino acids); also called His6-PrrBC; His-PrrBC; not shown: His6, N-terminal, kept
In the case of B1, in assay [1], the binding result is “binds”.

B2: GST-PhoRC (domain or fragment)
chain: TAAAIGAGQLDRRVPQWHPRTEVGRLSLALNGMLAQIQRAVASAESSAEKARDSEDRMRQFITDASHELRTPLTTIRGFAELYRQGAARDVGMLLSRIESEASRMGLLVDDLLLLARLDAHRPLELCRVDLLALASDAAHDARAMDPKRRITLEVLDGPGTPEVLGDESRLRQVLRNLVANAIQHTPESADVTVRVGTEGDDAILEVADDGPGMSQEDALRVFERFYRADSSRARASGGTGLGLSIVDSLVAAHGGAVTVTTALGEGCCFRVSLPRVSDVDQLSLTPVVPGPP
notes: PhoR, sensor kinase, M. tuberculosis, cytoplasmic domain PhoRC, residues 193-485 (C-terminal 293 residues); also called GST-tagged PhoRC
B2: in assay [2], the binding result is “binds”.
